# Legend:
# [1] = target: PD-L1 on RENCA HER2 cells (mouse) (UniProt Q9EP73); assay: flow cytometry, RENCA HER2 cells treated 24 h with 1 microgram/ml polyIC/PPHA, stained with PE anti-mouse PD-L1 10F.9G2, 1 h
# [2] = target: PD-L1 on RENCA HER2 cells (mouse) (UniProt Q9EP73); assay: flow cytometry, untreated RENCA HER2 cells stained with PE anti-mouse PD-L1 10F.9G2, 1 h
# PD-L1 on A431 cells [3] = target: PD-L1 on A431 cells (UniProt Q9NZQ7); assay: flow cytometry on A431 cells, negative control
# [4] = target: PD-L1 on RENCA HER2 cells (mouse) (UniProt Q9EP73); assay: flow cytometry on RENCA HER2 cells, isotype control, 1 h
# PD-L1 on A431 cells [5] = target: PD-L1 on A431 cells (UniProt Q9NZQ7); assay: flow cytometry, A431 cells treated 5 h with 0.125 µg/ml PEI-PEG-EGF/polyIC, stained 40 min on ice
# PD-L1 on A431 cells [6] = target: PD-L1 on A431 cells (UniProt Q9NZQ7); assay: flow cytometry, untreated control A431 cells, stained 40 min on ice
# Chain of UniProt Q9EP73 (Q9EP73 19-290): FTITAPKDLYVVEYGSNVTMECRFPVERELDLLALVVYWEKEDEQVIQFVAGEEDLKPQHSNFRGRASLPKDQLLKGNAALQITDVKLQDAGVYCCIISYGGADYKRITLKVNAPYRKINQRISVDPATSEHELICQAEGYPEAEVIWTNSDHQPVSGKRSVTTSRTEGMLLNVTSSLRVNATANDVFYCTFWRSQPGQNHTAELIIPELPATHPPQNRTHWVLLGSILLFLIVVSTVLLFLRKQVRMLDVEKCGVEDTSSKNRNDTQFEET
# Chain of UniProt Q9NZQ7 (Q9NZQ7 19-290 limits assumed): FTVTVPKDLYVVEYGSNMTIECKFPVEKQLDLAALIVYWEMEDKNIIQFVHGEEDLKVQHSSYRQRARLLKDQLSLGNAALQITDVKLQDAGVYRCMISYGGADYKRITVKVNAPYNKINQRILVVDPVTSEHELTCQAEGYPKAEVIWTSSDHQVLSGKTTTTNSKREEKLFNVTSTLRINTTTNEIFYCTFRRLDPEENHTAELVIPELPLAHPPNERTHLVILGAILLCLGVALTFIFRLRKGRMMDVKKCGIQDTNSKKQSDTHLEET
substance,measurement,setting,value
"phycoerythrin (PE)-conjugated anti-mouse PD-L1 antibody CD274 (PD-L1, B7-H1) [10F.9G2] Tonbo cat #50-1243-U025",median PE-A (Calculated raw values of medians using x-axis channel(s): PE-A),[1],322
same,median PE-A (Calculated raw values of medians using x-axis channel(s): PE-A),[2],163
"Isotype control (Example 1, A431 staining) (antibody)",MFI,PD-L1 on A431 cells [3],13
"Isotype control (Example 6, RENCA HER2 staining) (antibody)",median PE-A (Calculated raw values of medians using x-axis channel(s): PE-A),[4],3.19
"PD-L1-PE labelled antibody (Biolegend, cat #393607)",MFI,PD-L1 on A431 cells [5],751
same,MFI,PD-L1 on A431 cells [6],431

# From US20220175814A1
